# B1: COX4I1 (parent)
# chain: VAHVKHLSASQKALKEKEKASWSS
# B2: FEM1A (parent)
# chain: NIVEYLIQEQPGQEQVAGGEAQPG
# Variants of: B1
# Assay: protein stability index of a GFP-peptide fusion (GPS, HEK-293T) (PSI 1-6); higher = more stable
# Settings: c terminus: a fixed tail appended
# 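Further: lentivirally expressed fusions sorted by FACS into six bins by GFP to DsRed ratio, PSI derived from sequencing read proportions per bin multiplied by bin number.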
row,Variant,protein stability index
1,S24V,3.15
2,S24F,3.33
3,S24Q,3.94
4,S24L,3.41
5,S24I,3.56
6,S24N,3.76
7,S24T,3.57
8,S24E,2.81
9,S24R,3.38
10,S24Y,3.13
11,S24D,2.98
12,S24P,4.36
13,S24G,3.62
14,S24K,4.25
15,S24M,3.17
16,S24W,2.95

row,Variant,protein stability index
1,S24H,3.45
2,S24A,3.41
3,S24C,3.31
4,S23I,2.91
5,S23N,4
6,S23W,2.81
7,S23P,4.06
8,S23L,3.1
9,S23K,3.74
10,S23R,3.22
11,S23Y,3.41
12,S23M,3.77
13,S23T,2.91
14,S23V,2.61
15,S23Q,2.81

# Variants of: B2
# Assay: as above
# Settings: c terminus: a fixed tail appended
row,Variant,protein stability index
1,E9Y,2.42
2,E9S,3.36
3,E9P,3.71
4,E9N,3.38
5,E9K,3.71
6,E9T,3.15
7,E9D,4.49
8,E9Q,3.52
9,E9V,2.06
10,E9A,2.91
11,E9I,2.3
12,E9M,3.35
13,E9H,2.95
14,E9C,3
15,E9G,3.71
16,E9W,2.45
17,E9R,2.88
18,E9F,2.79
19,E9L,2.27
20,E14C,3.38
21,E14D,4.39
22,E14I,3.25
23,E14S,3.21

row,Variant,protein stability index
1,E14T,4.21
2,E14H,3.48
3,E14R,3.37
4,E14Y,2.69
5,E14L,3.06
6,E14Q,3.33
7,E14F,2.62
8,E14A,4.06
9,E14K,3.85
10,E14G,3.84
11,E14W,2.25
12,E14N,3.54
13,E14V,2.61
14,E14M,3.34
15,E14P,3.73
16,V3E,5.36
17,V3S,5.49
18,V3M,4.2
19,V3P,5.74
20,V3Q,4.57
21,V3K,5.05
22,V3N,5.01
23,V3W,3.67

row,Variant,protein stability index
1,V3T,4.81
2,V3Y,4.33
3,V3F,4.21
4,V3C,5.04
5,V3L,3.07
6,V3H,5.06
7,V3I,3.91
8,V3R,5.21
9,V3A,5.13
10,V3D,5.67
11,V3G,5.37
12,N1V,2.76
13,N1W,2.71
14,N1E,3.85
15,N1R,3.19
16,N1S,3.7
17,N1T,2.92
18,N1Q,3.89
19,N1Y,2.52
20,N1M,2.16
21,N1C,2.79
22,N1A,2.91
23,N1G,4.34

row,Variant,protein stability index
1,N1F,2.54
2,N1I,3.26
3,N1P,5.17
4,N1D,3.66
5,N1K,3.36
6,N1L,1.85
7,N1H,3.76
8,A17C,3.37
9,I2M,4.15
10,I2E,5.63
11,I2W,2.59
12,I2T,5.57
13,I2A,5.21
14,I2S,5.54
15,I2P,5.54
16,I2L,4.29
17,I2Y,4.59
18,I2H,5.49
19,I2R,5.59
20,I2N,5.41
21,I2G,5.39
22,I2V,5.13
23,I2Q,5.6

row,Variant,protein stability index
1,I2C,5.17
2,I2D,5.12
3,I2F,4.24
4,I2K,5.27
5,Q8A,4.46
6,Q8W,3.33
7,Q8Y,3.36
8,Q8S,4.09
9,Q8K,4.06
10,Q8C,3.36
11,Q8V,3.34
12,Q8T,4.88
13,Q8F,2.94
14,Q8D,4.89
15,Q8N,4.42
16,Q8I,3.18
17,Q8H,3.93
18,Q8P,4.71
19,Q8M,3.66
20,Q8L,4.39
21,Q8R,3.11
22,Q8G,4.26
23,Q8E,4.7

row,Variant,protein stability index
1,Y5S,4.83
2,Y5L,4.03
3,Y5K,5.31
4,Y5W,2.18
5,Y5Q,5.08
6,Y5F,3.56
7,Y5E,5.66
8,Y5T,5.44
9,Y5G,5.7
10,Y5V,4.49
11,Y5A,5.18
12,Y5P,5.82
13,Y5M,3.95
14,Y5R,4.54
15,Y5N,4.83
16,Y5C,4.74
17,Y5I,3.98
18,Y5H,4.93
19,Y5D,5.67
20,P11C,3.11
21,P11H,3.6

# Source: the supplement of paper PMC10567573
